Results from PMC10397247.

Key:
4H2620-AA = target: T1, 4H2620-AA; assay: two-hybrid library CCmax;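 also: natural log of median RNA to DNA barcode read ratio; higher means stronger binding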
T1 chain: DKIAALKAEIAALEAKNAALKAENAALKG

4H2648-AA = target: T2, 4H2648-AA; assay: two-hybrid library CCmax; settings: mean of both orientations;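 also: natural log of median RNA to DNA barcode read ratio; higher means stronger binding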
T2 chain: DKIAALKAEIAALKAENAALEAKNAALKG

4H2907-AA = target: T3, 4H2907-AA; assay: two-hybrid library CCmax; settings: mean of both orientations;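 also: natural log of median RNA to DNA barcode read ratio; higher means stronger binding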
T3 chain: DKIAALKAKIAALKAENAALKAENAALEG

4H3056-AA = target: T4, 4H3056-AA; assay: two-hybrid library CCmax; settings: mean of both orientations;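 also: natural log of median RNA to DNA barcode read ratio; higher means stronger binding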
T4 chain: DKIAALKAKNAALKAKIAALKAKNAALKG

4H3133-AA = target: T5, 4H3133-AA; assay: two-hybrid library CCmax; settings: mean of both orientations;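 also: natural log of median RNA to DNA barcode read ratio; higher means stronger binding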
T5 chain: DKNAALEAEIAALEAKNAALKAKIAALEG

4H3162-AA = target: T6, 4H3162-AA; assay: two-hybrid library CCmax; settings: mean of both orientations;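 also: natural log of median RNA to DNA barcode read ratio; higher means stronger binding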
T6 chain: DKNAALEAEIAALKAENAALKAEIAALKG

4H32-AA = target: T7, 4H32-AA; assay: two-hybrid library CCmax; settings: mean of both orientations
T7 chain: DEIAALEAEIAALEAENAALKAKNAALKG

4H3378-AA = target: T8, 4H3378-AA; assay: two-hybrid library CCmax; settings: mean of both orientations
T8 chain: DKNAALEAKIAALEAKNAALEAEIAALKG

4H340-AA = target: T9, 4H340-AA; assay: two-hybrid library CCmax; settings: mean of both orientations
T9 chain: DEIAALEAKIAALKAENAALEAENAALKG

4H3413-AA = target: T10, 4H3413-AA; assay: two-hybrid library CCmax; settings: mean of both orientations
T10 chain: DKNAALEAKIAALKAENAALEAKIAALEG

4H3588-AA = target: T11, 4H3588-AA; assay: two-hybrid library CCmax; settings: mean of both orientations
T11 chain: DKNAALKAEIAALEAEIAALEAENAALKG

4H3606-AA = target: T12, 4H3606-AA; assay: two-hybrid library CCmax; settings: mean of both orientations
T12 chain: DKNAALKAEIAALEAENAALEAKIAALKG

4H3631-AA = target: T13, 4H3631-AA; assay: two-hybrid library CCmax; settings: mean of both orientations
T13 chain: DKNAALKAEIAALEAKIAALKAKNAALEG

4H3697-AA = target: T14, 4H3697-AA; assay: two-hybrid library CCmax
T14 chain: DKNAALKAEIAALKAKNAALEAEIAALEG

4H3718-AA = target: T15, 4H3718-AA; assay: two-hybrid library CCmax; settings: mean of both orientations
T15 chain: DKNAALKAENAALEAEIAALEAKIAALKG

4H384-AA = target: T16, 4H384-AA; assay: two-hybrid library CCmax; settings: mean of both orientations
T16 chain: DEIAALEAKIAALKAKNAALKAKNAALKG

4H3865-AA = target: T17, 4H3865-AA; assay: two-hybrid library CCmax; settings: mean of both orientations
T17 chain: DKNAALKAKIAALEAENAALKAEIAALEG

4H697-AA = target: T18, 4H697-AA; assay: two-hybrid library CCmax; settings: mean of both orientations
T18 chain: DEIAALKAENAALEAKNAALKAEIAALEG

4H982-AA = target: T19, 4H982-AA; assay: two-hybrid library CCmax; settings: mean of both orientations
T19 chain: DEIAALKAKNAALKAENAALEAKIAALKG

O9-bA = target: T20, O9-bA; assay: two-hybrid library CCNG1; settings: mean of both orientations
T20 chain: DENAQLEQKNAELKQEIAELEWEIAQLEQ

4H2903-AA = target: T21, 4H2903-AA; assay: two-hybrid library CCmax
T21 chain: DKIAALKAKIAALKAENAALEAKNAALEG

4H2947-AA = target: T22, 4H2947-AA; assay: two-hybrid library CCmax; settings: mean of both orientations
T22 chain: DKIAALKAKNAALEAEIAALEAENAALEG

4H2961-AA = target: T23, 4H2961-AA; assay: two-hybrid library CCmax; settings: mean of both orientations
T23 chain: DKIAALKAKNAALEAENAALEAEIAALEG

4H3049-AA = target: T24, 4H3049-AA; assay: two-hybrid library CCmax; settings: mean of both orientations
T24 chain: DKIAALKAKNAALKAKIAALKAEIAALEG

4H3094-AA = target: T25, 4H3094-AA; assay: two-hybrid library CCmax; settings: mean of both orientations
T25 chain: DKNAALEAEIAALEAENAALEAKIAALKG

4H3129-AA = target: T26, 4H3129-AA; assay: two-hybrid library CCmax; settings: mean of both orientations
T26 chain: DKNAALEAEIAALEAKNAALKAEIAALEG

4H324-AA = target: T27, 4H324-AA; assay: two-hybrid library CCmax; settings: mean of both orientations
T27 chain: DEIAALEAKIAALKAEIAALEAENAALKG

4H341-AA = target: T28, 4H341-AA; assay: two-hybrid library CCmax; settings: mean of both orientations
T28 chain: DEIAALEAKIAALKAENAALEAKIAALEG

4H3414-AA = target: T29, 4H3414-AA; assay: two-hybrid library CCmax; settings: mean of both orientations
T29 chain: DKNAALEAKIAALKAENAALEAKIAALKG

4H3449-AA = target: T30, 4H3449-AA; assay: two-hybrid library CCmax; settings: mean of both orientations
T30 chain: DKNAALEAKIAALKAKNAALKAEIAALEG

4H3595-AA = target: T31, 4H3595-AA; assay: two-hybrid library CCmax; settings: mean of both orientations
T31 chain: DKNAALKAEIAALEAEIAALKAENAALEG

4H3619-AA = target: T32, 4H3619-AA; assay: two-hybrid library CCmax; settings: mean of both orientations
T32 chain: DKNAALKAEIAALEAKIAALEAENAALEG

4H3629-AA = target: T33, 4H3629-AA; assay: two-hybrid library CCmax; settings: mean of both orientations
T33 chain: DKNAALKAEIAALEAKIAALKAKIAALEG

4H3777-AA = target: T34, 4H3777-AA; assay: two-hybrid library CCmax; settings: mean of both orientations
T34 chain: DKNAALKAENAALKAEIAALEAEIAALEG

4H3782-AA = target: T35, 4H3782-AA; assay: two-hybrid library CCmax; settings: mean of both orientations
T35 chain: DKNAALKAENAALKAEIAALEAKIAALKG

4H380-AA = target: T36, 4H380-AA; assay: two-hybrid library CCmax; settings: mean of both orientations
T36 chain: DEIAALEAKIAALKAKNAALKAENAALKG

4H3915-AA = target: T37, 4H3915-AA; assay: two-hybrid library CCmax; settings: mean of both orientations
T37 chain: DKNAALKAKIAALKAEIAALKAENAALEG

4H3939-AA = target: T38, 4H3939-AA; assay: two-hybrid library CCmax; settings: mean of both orientations
T38 chain: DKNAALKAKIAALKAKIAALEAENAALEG

4H3969-AA = target: T39, 4H3969-AA; assay: two-hybrid library CCmax; settings: mean of both orientations
T39 chain: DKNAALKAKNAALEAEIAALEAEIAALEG

4H3974-AA = target: T40, 4H3974-AA; assay: two-hybrid library CCmax; settings: mean of both orientations
T40 chain: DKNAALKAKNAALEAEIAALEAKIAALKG

4H432-AA = target: T41, 4H432-AA; assay: two-hybrid library CCmax; settings: mean of both orientations
T41 chain: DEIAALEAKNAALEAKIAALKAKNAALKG

4H446-AA = target: T42, 4H446-AA; assay: two-hybrid library CCmax; settings: mean of both orientations
T42 chain: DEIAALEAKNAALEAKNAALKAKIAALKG

4H464-AA = target: T43, 4H464-AA; assay: two-hybrid library CCmax; settings: mean of both orientations
T43 chain: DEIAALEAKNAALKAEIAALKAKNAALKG

4H483-AA = target: T44, 4H483-AA; assay: two-hybrid library CCmax; settings: mean of both orientations
T44 chain: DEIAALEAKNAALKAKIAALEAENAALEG

4H63-AA = target: T45, 4H63-AA; assay: two-hybrid library CCmax; settings: mean of both orientations
T45 chain: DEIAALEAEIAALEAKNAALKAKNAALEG

4H918-AA = target: T46, 4H918-AA; assay: two-hybrid library CCmax
T46 chain: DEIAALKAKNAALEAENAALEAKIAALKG

4H953-AA = target: T47, 4H953-AA; assay: two-hybrid library CCmax; settings: mean of both orientations
T47 chain: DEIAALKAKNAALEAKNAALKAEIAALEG

4H967-AA = target: T48, 4H967-AA; assay: two-hybrid library CCmax; settings: mean of both orientations
T48 chain: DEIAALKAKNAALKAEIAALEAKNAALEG

Binder: DKIAALKAEIAALEAKNAALKAENAALKG [4H2620-AA]
- interaction score (4H2620-AA): 0.586
- interaction score (4H2648-AA): 1.77
- interaction score (4H2907-AA): 1.23
- interaction score (4H3056-AA): -1.79
- interaction score (4H3133-AA): -1.58
- interaction score (4H3162-AA): -1.82
- interaction score (4H32-AA): 1.05
- interaction score (4H3378-AA): -1.66
- interaction score (4H340-AA): 2.42
- interaction score (4H3413-AA): -0.901
- interaction score (4H3588-AA): 0.147
- interaction score (4H3606-AA): -0.861
- interaction score (4H3631-AA): -0.556
- interaction score (4H3697-AA): -1.64
- interaction score (4H3718-AA): -0.835
- interaction score (4H384-AA): 0.949
- interaction score (4H3865-AA): -1.61
- interaction score (4H697-AA): -1.54
- interaction score (4H982-AA): -0.887

Binder: DENAQLEQKNAELKQEIAELEWEIAQLEQ [O9-bA]
- interaction score (O9-bA): -0.959

Binder: DKIAALKAKIAALKAENAALEAKNAALEG [4H2903-AA]
- interaction score (4H2903-AA): -1.28
- interaction score (4H2947-AA): -1.62
- interaction score (4H2961-AA): -1.88
- interaction score (4H3049-AA): -1.81
- interaction score (4H3094-AA): -0.448
- interaction score (4H3129-AA): -0.64
- interaction score (4H324-AA): -0.202
- interaction score (4H341-AA): -0.593
- interaction score (4H3414-AA): -1.72
- interaction score (4H3449-AA): -1.8
- interaction score (4H3595-AA): -0.655
- interaction score (4H3619-AA): -0.237
- interaction score (4H3629-AA): -0.902
- interaction score (4H3777-AA): -1.22
- interaction score (4H3782-AA): -1.31
- interaction score (4H380-AA): 0.283
- interaction score (4H3915-AA): -1.48
- interaction score (4H3939-AA): -1.78
- interaction score (4H3969-AA): -0.566
- interaction score (4H3974-AA): -0.747
- interaction score (4H432-AA): -1.38
- interaction score (4H446-AA): -0.722
- interaction score (4H464-AA): -1.44
- interaction score (4H483-AA): -1.33
- interaction score (4H63-AA): 2.45

Binder: DEIAALKAKNAALEAENAALEAKIAALKG [4H918-AA]
- interaction score (4H918-AA): 1.24
- interaction score (4H953-AA): 2.09
- interaction score (4H967-AA): -0.889
